Assay results from patent US20220249597A1 (Johns Hopkins, published 2022).

Target: T1, endogenous MIF (macrophage migration inhibitory factor) in HeLa cell lysates (human, UniProt P14174 2-115)
T1 construct: Endogenous protein in lysate, detected by western blot with an anti-MIF antibody; also called MMIF; PAAN
Test: pull-down of AIF mutants, western blot with anti-MIF antibody

T1 sequence (P14174 2-115 limits assumed): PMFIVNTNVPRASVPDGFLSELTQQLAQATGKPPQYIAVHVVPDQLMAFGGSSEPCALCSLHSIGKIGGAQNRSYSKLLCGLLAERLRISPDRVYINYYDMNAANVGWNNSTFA

binding result	Binder
no binding	AIFm567-592 (full length AIF with aa567-592 mutated into polyalanines) (other, mouse, UniProt Q9Z0X1 1-612, looked up) MFRCGGLAGAFKQKLVPLVRTVYVQRPKQRNRLPGNLFQQWRVPLELQMARQMASSGSSGGKMDNSVLVLIVGLSTIGAGAYAYKTIKEDQKRYNERVMGLGLSPEEKQRRAIASATEGGSVPQIRAPSHVPFLLIGGGTAAFAAARSIRARDPGARVLIVSEDPELPYMRPPLSKELWFSDDPNVTKTLQFRQWNGKERSIYFQPPSFYVSAQDLPNIENGGVAVLTGKKVVHLDVRGNMVKLNDGSQITFEKCLIATGGTPRSLSAIDRAGAEVKSRTTLFRKIGDFRALEKISREVKSITVIGGGFLGSELACALGRKSQASGIEVIQLFPEKGNMGKILPQYLSNWTMEKVKREGVKVMPNAIVQSVGVSGGRLLIKLKDGRKVETDHIVTAVGLEPNVELAKTGGLEIDSDFGGFRVNAELQARSNIWVAGDAACFYDIKLGRRRVEHHDHAVVSGRLAGENMTGAAKPYWHQSMFWSDLGPDVGYEAIGLVDSSLPTVGVFAKATAQDNPKSATEQSGTGIRSESETESEASEITIPPSAPAVPQVPVEGEDYGKGVIFYAAAAAAAAAAAAAAAAAAAAAAAAAADGEQHEDLNEVAKLFNIHED
no binding	AIFA567-592 (full length AIF with aa567-592 deleted) (other, mouse, UniProt Q9Z0X1 1-612, looked up) MFRCGGLAGAFKQKLVPLVRTVYVQRPKQRNRLPGNLFQQWRVPLELQMARQMASSGSSGGKMDNSVLVLIVGLSTIGAGAYAYKTIKEDQKRYNERVMGLGLSPEEKQRRAIASATEGGSVPQIRAPSHVPFLLIGGGTAAFAAARSIRARDPGARVLIVSEDPELPYMRPPLSKELWFSDDPNVTKTLQFRQWNGKERSIYFQPPSFYVSAQDLPNIENGGVAVLTGKKVVHLDVRGNMVKLNDGSQITFEKCLIATGGTPRSLSAIDRAGAEVKSRTTLFRKIGDFRALEKISREVKSITVIGGGFLGSELACALGRKSQASGIEVIQLFPEKGNMGKILPQYLSNWTMEKVKREGVKVMPNAIVQSVGVSGGRLLIKLKDGRKVETDHIVTAVGLEPNVELAKTGGLEIDSDFGGFRVNAELQARSNIWVAGDAACFYDIKLGRRRVEHHDHAVVSGRLAGENMTGAAKPYWHQSMFWSDLGPDVGYEAIGLVDSSLPTVGVFAKATAQDNPKSATEQSGTGIRSESETESEASEITIPPSAPAVPQVPVEGEDYGKGVIFYDGEQHEDLNEVAKLFNIHED
